Target: the molecule itself
Test: ThT fluorescence + negative stain TEM

Row | Protein | binding result
1 | DNIKHVPGGGSVQIVYKPV [jR2R3 peptide (tau residues 295-313)] | binds
2 | VPGGGSVQIVYKPV [jΔR3 peptide (C-terminal half of jR2R3, tau 300-313)] | binds
3 | VLGGGSVQIVYKPV [jΔR3-P301L peptide (tau 300-313 with P301L)] | binds

— publication doi:10.1101/2023.11.28.568818 (bioRxiv, 2023)
